Results as given in article PMC7336386, “Methylation of MdMYB1 locus mediated by RdDM pathway regulates anthocyanin biosynthesis in apple”.

How the values were obtained:
[1] = target: T1, MdAGO4-1 without PAZ domain (Malus domestica? (apple), UniProt A0A498JG28 46-274+435-911, internal_change); assay: EMSA; LightShift Chemiluminescent EMSA Kit (Thermo); buffer, salt, pH and temperature not stated; conditions: protein: recombinant
T1 sequence: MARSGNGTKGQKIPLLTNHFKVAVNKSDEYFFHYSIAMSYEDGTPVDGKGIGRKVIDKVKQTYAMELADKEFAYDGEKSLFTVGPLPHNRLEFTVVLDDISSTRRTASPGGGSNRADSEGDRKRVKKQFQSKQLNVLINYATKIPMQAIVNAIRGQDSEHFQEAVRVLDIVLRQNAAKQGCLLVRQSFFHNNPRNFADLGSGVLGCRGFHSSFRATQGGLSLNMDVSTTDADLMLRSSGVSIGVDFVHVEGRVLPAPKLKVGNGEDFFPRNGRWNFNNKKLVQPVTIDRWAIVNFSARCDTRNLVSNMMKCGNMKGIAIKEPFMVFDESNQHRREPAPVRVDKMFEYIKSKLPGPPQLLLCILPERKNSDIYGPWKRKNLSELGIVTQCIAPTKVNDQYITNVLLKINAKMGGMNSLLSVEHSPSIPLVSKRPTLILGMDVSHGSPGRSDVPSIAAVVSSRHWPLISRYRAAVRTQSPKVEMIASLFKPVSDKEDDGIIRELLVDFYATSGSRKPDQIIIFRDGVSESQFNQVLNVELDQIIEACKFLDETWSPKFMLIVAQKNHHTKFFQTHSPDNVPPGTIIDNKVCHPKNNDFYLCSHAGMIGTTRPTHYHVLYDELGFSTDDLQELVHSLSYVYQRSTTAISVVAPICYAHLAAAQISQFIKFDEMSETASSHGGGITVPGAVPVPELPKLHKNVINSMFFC

MdAGO4-1 = target: T2, MdAGO4-1 (Malus domestica? (apple), UniProt A0A498JG28 46-911); assay: as above; conditions: protein: recombinant, tags: His (pET32a)
T2 sequence: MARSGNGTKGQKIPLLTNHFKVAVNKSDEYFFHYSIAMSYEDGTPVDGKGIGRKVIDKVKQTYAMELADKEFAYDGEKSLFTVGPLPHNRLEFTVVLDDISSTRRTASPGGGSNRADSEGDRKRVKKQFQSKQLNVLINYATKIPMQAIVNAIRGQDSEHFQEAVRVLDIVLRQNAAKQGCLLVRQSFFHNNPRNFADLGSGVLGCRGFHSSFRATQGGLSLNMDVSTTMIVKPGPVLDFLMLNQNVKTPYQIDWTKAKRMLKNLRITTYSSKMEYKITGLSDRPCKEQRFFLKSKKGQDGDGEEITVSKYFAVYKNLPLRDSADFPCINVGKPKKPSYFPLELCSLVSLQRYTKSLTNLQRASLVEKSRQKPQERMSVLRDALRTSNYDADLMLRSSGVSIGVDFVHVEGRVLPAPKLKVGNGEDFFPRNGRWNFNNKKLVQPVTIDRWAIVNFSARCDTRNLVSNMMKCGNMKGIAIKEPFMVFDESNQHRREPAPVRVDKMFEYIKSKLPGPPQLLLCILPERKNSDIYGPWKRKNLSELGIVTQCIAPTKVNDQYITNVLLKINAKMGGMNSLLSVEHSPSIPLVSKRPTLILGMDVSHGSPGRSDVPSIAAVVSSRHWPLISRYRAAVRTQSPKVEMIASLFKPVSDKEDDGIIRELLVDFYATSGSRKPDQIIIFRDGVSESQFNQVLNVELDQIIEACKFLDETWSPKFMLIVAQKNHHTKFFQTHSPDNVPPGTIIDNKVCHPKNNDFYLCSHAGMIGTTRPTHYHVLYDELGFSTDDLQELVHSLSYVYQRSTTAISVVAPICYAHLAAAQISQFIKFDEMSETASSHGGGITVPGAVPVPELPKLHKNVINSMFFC

Binder | binding result [1] | binding result (MdAGO4-1) | binding result (MdAGO4-1; blunt)
MdMYB1 probe2 (dsDNA) DNA 1: TGTCAGTGTTTGCTTCTGTGGATATCAGACATGCACGTCACTGGCCTT DNA 2: AAGGCCAGTGACGTGCATGTCTGATATCCACAGAAGCAAACACTGACA | binds | binds | 
2-m3 (m3 region … not intact) (dsDNA) DNA 1: TGTCAGTGTTTGCTTCTGTGATGCACGTCACTGGCCTT DNA 2: AAGGCCAGTGACGTGCATCACAGAAGCAAACACTGACA |  | no binding | 
2-m4 (dsDNA) DNA 1: TGTCAGTGTTTGCTTCTGTGGATATCAGACCTGGCCTT DNA 2: AAGGCCAGGTCTGATATCCACAGAAGCAAACACTGACA |  | binds | 
2-m5 (dsDNA) DNA 1: TGTCAGTGTTTGCTTCTGTGGATATCAGACATGCACGTCA DNA 2: TGACGTGCATGTCTGATATCCACAGAAGCAAACACTGACA |  | binds | 
MdFLS probe (dsDNA) DNA 1: GTAAAGGGAGTGTGACCATAATATCAGATACACAAACGTCCAAAGCCC DNA 2: GGGCTTTGGACGTTTGTGTATCTGATATTATGGTCACACTCCCTTTAC |  |  | binds
MdGST probe (dsDNA) DNA 1: TTTTTTATTAAATAAAAAAAGATATCATGCGACAAACATTTATTAAATTG DNA 2: CAATTTAATAAATGTTTGTCGCATGATATCTTTTTTTATTTAATAAAAAA |  |  | no binding
2-m1 (probe2 without m1 region) (dsDNA) DNA 1: TGCTTCTGTGGATATCAGACATGCACGTCACTGGCCTT DNA 2: AAGGCCAGTGACGTGCATGTCTGATATCCACAGAAGCA |  | binds | 
2-m2 (dsDNA) DNA 1: TGTCAGTGTTGATATCAGACATGCACGTCACTGGCCTT DNA 2: AAGGCCAGTGACGTGCATGTCTGATATCAACACTGACA |  | binds | 
